The values below come from the supplement of paper PMC9112550, “Optimization of the antimicrobial peptide Bac7 by deep mutational scanning” (BMC Biology, 2022).

The test system of the series is Escherichia coli TOP10. The series is described as follows: shrunken log2 fold change of peptide-encoding DNA abundance (4.5 h post-induction vs induction); higher = less antimicrobial activity (less host growth inhibition). The settings on record: time post-induction: 4.5 h; library: site-saturation at positions 5, 18, 19, 20.
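Note: peptides expressed intracellularly from a pBAD plasmid library in pooled LB shake-flask culture, induced with 0.3% L-arabinose, DNA abundance read by NGS, three biological replicates, DESeq2 with apeglm shrinkage.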

For the sequence RRIRARPPRLPRPRPRPILRPRP, the “shrunken log2 fold change” value is 0.0733. Next, RRIRLRPPRLPRPRPRPNFSPRP: -0.00932; RRIRLRPPRLPRPRPRPIITPRP: -0.613; RRIRERPPRLPRPRPRPPFNPRP: -0.275. Under RRIRYRPPRLPRPRPRPRRYPRP stands -0.492; under RRIRYRPPRLPRPRPRPQFPPRP, -0.0877; under RRIRIRPPRLPRPRPRPIRSPRP, -0.273. Next, RRIRFRPPRLPRPRPRPFNVPRP: -0.0431; RRIRTRPPRLPRPRPRPIWPPRP: 0.173. Take RRIRCRPPRLPRPRPRPSQGPRP: the “shrunken log2 fold change” value is -0.137. Take RRIRRRPPRLPRPRPRPGIEPRP: the “shrunken log2 fold change” value is -0.0777.

As to RRIRIRPPRLPRPRPRPADGPRP, the “shrunken log2 fold change” value was found to be 0.276.

As to RRIRVRPPRLPRPRPRPHGNPRP, the “shrunken log2 fold change” value is -0.0331. Next, RRIRTRPPRLPRPRPRPSQNPRP: -0.00631; RRIRARPPRLPRPRPRPCSLPRP: -0.272; RRIRNRPPRLPRPRPRPHSIPRP: -0.209. Next, RRIRARPPRLPRPRPRPFAKPRP: 0.349; RRIRKRPPRLPRPRPRPKLDPRP: 0.707; RRIRTRPPRLPRPRPRPRQCPRP: 0.153. In the case of RRIRQRPPRLPRPRPRPDKLPRP, the “shrunken log2 fold change” value is -0.522. In the case of RRIRIRPPRLPRPRPRPIVSPRP, the “shrunken log2 fold change” value is -0.102. Next, RRIRNRPPRLPRPRPRPFCKPRP: -0.835; RRIRPRPPRLPRPRPRPKGRPRP: -0.086.

Regarding RRIRARPPRLPRPRPRPARNPRP, the “shrunken log2 fold change” value was 0.364. As to RRIRWRPPRLPRPRPRPFPFPRP, the “shrunken log2 fold change” value was -0.28. Under RRIRRRPPRLPRPRPRPYENPRP stands -0.374; under RRIRHRPPRLPRPRPRPRSKPRP, 3.34; under RRIRQRPPRLPRPRPRPFQYPRP, -0.306. Under RRIRYRPPRLPRPRPRPWFTPRP stands -0.165; under RRIRVRPPRLPRPRPRPFVRPRP, -0.0708; under RRIRNRPPRLPRPRPRPTQQPRP, 0.244.

As for RRIRPRPPRLPRPRPRPPCVPRP, the “shrunken log2 fold change” value came to 0.128.

Turning to RRIRFRPPRLPRPRPRPTEMPRP, the “shrunken log2 fold change” value is -0.105.

On to RRIRERPPRLPRPRPRPFNEPRP, for which the “shrunken log2 fold change” value is -0.226. Next, RRIRHRPPRLPRPRPRPQFSPRP: -0.139; RRIRTRPPRLPRPRPRPFNDPRP: -0.136; RRIRFRPPRLPRPRPRPYGPPRP: -0.266. For the sequence RRIRARPPRLPRPRPRPWRYPRP, the “shrunken log2 fold change” value was -0.163.

Turning to RRIRERPPRLPRPRPRPYDGPRP, the “shrunken log2 fold change” value was -0.0116. As for RRIRTRPPRLPRPRPRPNTGPRP, the “shrunken log2 fold change” value was -0.388. Under RRIRSRPPRLPRPRPRPGVTPRP stands 0.0674; under RRIRQRPPRLPRPRPRPMTGPRP, 0.0323. With RRIRRRPPRLPRPRPRPCYHPRP, the “shrunken log2 fold change” value is -0.169.

As for RRIRRRPPRLPRPRPRPGDEPRP, the “shrunken log2 fold change” value was -0.0622.

As for RRIRYRPPRLPRPRPRPAQMPRP, the “shrunken log2 fold change” value came to 0.0755. Regarding RRIRMRPPRLPRPRPRPCQMPRP, the “shrunken log2 fold change” value came out at 0.00911. In the case of RRIRYRPPRLPRPRPRPWDTPRP, the “shrunken log2 fold change” value was -0.639. As for RRIRHRPPRLPRPRPRPQTFPRP, the “shrunken log2 fold change” value is -0.105. For RRIRLRPPRLPRPRPRPNRWPRP, the “shrunken log2 fold change” value was determined as 0.254.

As for RRIRPRPPRLPRPRPRPCFVPRP, the “shrunken log2 fold change” value is -0.18. Consider RRIRKRPPRLPRPRPRPWSVPRP, for which the “shrunken log2 fold change” value is -0.0212. Next, RRIRQRPPRLPRPRPRPATFPRP: 0.157; RRIRARPPRLPRPRPRPQMKPRP: 0.433; RRIRERPPRLPRPRPRPHWNPRP: -0.843. Under RRIRCRPPRLPRPRPRPTSSPRP stands -0.11. Next, RRIRTRPPRLPRPRPRPDASPRP: 0.0856. On to RRIRCRPPRLPRPRPRPEIPPRP, for which the “shrunken log2 fold change” value worked out at 0.0317. Under RRIRERPPRLPRPRPRPEFAPRP stands 0.0144; under RRIRARPPRLPRPRPRPAETPRP, 0.398. Next, RRIRLRPPRLPRPRPRPTFPPRP: 0.131; RRIRTRPPRLPRPRPRPCVFPRP: -0.215; RRIRRRPPRLPRPRPRPRNAPRP: 0.356. For the sequence RRIRCRPPRLPRPRPRPMWCPRP, the “shrunken log2 fold change” value was found to be 0.148. Consider RRIRPRPPRLPRPRPRPETTPRP, for which the “shrunken log2 fold change” value was -0.0108.

Turning to RRIRRRPPRLPRPRPRPDHTPRP, the “shrunken log2 fold change” value was -0.447.

In the case of RRIRIRPPRLPRPRPRPCYDPRP, the “shrunken log2 fold change” value is -0.014. Next, RRIRKRPPRLPRPRPRPSKSPRP: -0.141; RRIRWRPPRLPRPRPRPLLAPRP: 1.03; RRIRMRPPRLPRPRPRPQQLPRP: -0.0103. Under RRIRYRPPRLPRPRPRPPNAPRP stands 0.153; under RRIRRRPPRLPRPRPRPFCPPRP, -0.106.

In the case of RRIRLRPPRLPRPRPRPHPQPRP, the “shrunken log2 fold change” value stood at 0.0301. Next, RRIRCRPPRLPRPRPRPAVLPRP: -0.218. Next, RRIRGRPPRLPRPRPRPSVNPRP: 0.2; RRIRQRPPRLPRPRPRPQAGPRP: -0.158. Under RRIRNRPPRLPRPRPRPDQKPRP stands -0.000687; under RRIRCRPPRLPRPRPRPHYQPRP, -1.29; under RRIRGRPPRLPRPRPRPAWDPRP, 0.76.

Turning to RRIRIRPPRLPRPRPRPIYLPRP, the “shrunken log2 fold change” value was -0.811.

RRIRGRPPRLPRPRPRPEYHPRP: the “shrunken log2 fold change” value was determined as 0.155.

For the sequence RRIRERPPRLPRPRPRPQSMPRP, the “shrunken log2 fold change” value was -0.0801. For RRIRERPPRLPRPRPRPCCYPRP, the “shrunken log2 fold change” value came to 0.00792. Under RRIRKRPPRLPRPRPRPKNMPRP stands -0.129. Next, RRIRKRPPRLPRPRPRPSEEPRP: 0.1. Next, RRIRQRPPRLPRPRPRPTSTPRP: -0.0784; RRIRGRPPRLPRPRPRPHERPRP: 0.878; RRIRERPPRLPRPRPRPKFKPRP: -0.355. Take RRIRERPPRLPRPRPRPHFRPRP: the “shrunken log2 fold change” value was -0.624. Next, RRIRHRPPRLPRPRPRPLMKPRP: -0.581.

Regarding RRIRVRPPRLPRPRPRPFPKPRP, the “shrunken log2 fold change” value was -0.0266.

With RRIRDRPPRLPRPRPRPVFKPRP, the “shrunken log2 fold change” value is -0.0946. RRIRCRPPRLPRPRPRPTWEPRP: the “shrunken log2 fold change” value was -0.0631. Next, RRIRVRPPRLPRPRPRPCLIPRP: -0.641; RRIRQRPPRLPRPRPRPSFAPRP: 0.0485; RRIRRRPPRLPRPRPRPCRVPRP: 0.0136. Turning to RRIRTRPPRLPRPRPRPEWYPRP, the “shrunken log2 fold change” value was found to be 0.135.

Consider RRIRVRPPRLPRPRPRPHKQPRP, for which the “shrunken log2 fold change” value worked out at 0.0253. With RRIRTRPPRLPRPRPRPIWDPRP, the “shrunken log2 fold change” value is -0.414. Next, RRIRQRPPRLPRPRPRPAIYPRP: -0.0621; RRIRCRPPRLPRPRPRPYPGPRP: -0.0268; RRIRWRPPRLPRPRPRPKWDPRP: 0.185. Under RRIRRRPPRLPRPRPRPVRCPRP stands 0.424. RRIRKRPPRLPRPRPRPATKPRP: the “shrunken log2 fold change” value turned out to be 0.253.

For RRIRWRPPRLPRPRPRPEGTPRP, the “shrunken log2 fold change” value worked out at 0.103. In the case of RRIRNRPPRLPRPRPRPGNTPRP, the “shrunken log2 fold change” value was -0.896.

Regarding RRIRPRPPRLPRPRPRPFWKPRP, the “shrunken log2 fold change” value stood at 0.0756. For RRIRGRPPRLPRPRPRPLNHPRP, the “shrunken log2 fold change” value is 0.0752. With RRIRTRPPRLPRPRPRPMLTPRP, the “shrunken log2 fold change” value turned out to be 0.21. Turning to RRIRLRPPRLPRPRPRPACIPRP, the “shrunken log2 fold change” value is -0.0506. Under RRIRERPPRLPRPRPRPASYPRP stands -0.0425. Under RRIRCRPPRLPRPRPRPRPNPRP stands 0.478; under RRIRLRPPRLPRPRPRPTYQPRP, -0.229. Under RRIRFRPPRLPRPRPRPGYEPRP stands -0.16; under RRIRRRPPRLPRPRPRPPCWPRP, 0.325. Turning to RRIRYRPPRLPRPRPRPWCDPRP, the “shrunken log2 fold change” value was -0.733.

As to RRIRPRPPRLPRPRPRPMVNPRP, the “shrunken log2 fold change” value is -0.0636. As to RRIRPRPPRLPRPRPRPAQLPRP, the “shrunken log2 fold change” value came to 0.237.

RRIRWRPPRLPRPRPRPFQIPRP: the “shrunken log2 fold change” value is -0.25. As for RRIRARPPRLPRPRPRPMFYPRP, the “shrunken log2 fold change” value is -0.282. Next, RRIRHRPPRLPRPRPRPWVKPRP: -0.0135; RRIRMRPPRLPRPRPRPHEFPRP: 0.224.

On to RRIRFRPPRLPRPRPRPFFWPRP, for which the “shrunken log2 fold change” value is 0.118.

For RRIRPRPPRLPRPRPRPPFLPRP, the “shrunken log2 fold change” value is 0.188. Under RRIRARPPRLPRPRPRPIVIPRP stands -0.194; under RRIRRRPPRLPRPRPRPREDPRP, 0.811.
